Test results: PMC8519433

Tests used:
[1] = molecular target: human CXCR1 on transfected L1.2 cells (human) (UniProt P25024)
[2] = molecular target: CXCL8 (6-77), produced in-house (human); assay: SEC-MALS; CXCL8 at 4.2 mg/ml (0.5 mM), Superdex 75 10/300 GL, 20 mM Na phosphate pH 6.5, 100 mM NaCl, room temperature; a single species

Chain of human CXCR1 on transfected L1.2 cells (human) (P25024 whole entry): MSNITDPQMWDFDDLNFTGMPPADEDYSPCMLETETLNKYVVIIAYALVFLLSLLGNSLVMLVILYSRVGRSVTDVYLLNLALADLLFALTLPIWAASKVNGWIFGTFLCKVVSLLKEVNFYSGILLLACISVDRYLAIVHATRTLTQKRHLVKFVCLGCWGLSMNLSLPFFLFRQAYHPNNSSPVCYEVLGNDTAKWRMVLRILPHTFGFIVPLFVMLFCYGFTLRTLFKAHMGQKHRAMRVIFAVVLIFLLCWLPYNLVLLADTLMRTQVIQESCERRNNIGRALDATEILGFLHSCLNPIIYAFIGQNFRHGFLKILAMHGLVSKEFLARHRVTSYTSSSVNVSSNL

| Substance | chemotaxis of CXCR1-transfected L1.2 cells (modified Boyden chamber, 5 h), serial dilutions of CXCL8, bell-shaped response; percentage of cells migrated at the optimal concentration [1] | stoichiometry N [2] |
| --- | --- | --- |
| CXCL8 (6-77), produced in-house (ligand) | 20% | 2 |
| Recombinant CXCL8 (6-77), commercially available (ligand) | 20% |  |
